{"source": "patent US11406709B2", "about": "“Therapeutic and research application of PDCL3” (TRUSTEES OF BOSTON UNIVERSITY, priority 2014, dated 2022)", "key": {"[1]": {"tested_on": "VEGFR-1, CSF-1R and PDGFRβ", "assay": "Cell-free protein synthesis, rabbit reticulocyte transcription/translation system", "type": "biochemical", "conditions": "TNT Quick Coupled Transcription/Translation System", "protocol": "FIG. 12A. Schematic of the experiment is shown. FIG. 12B. In vitro translation and transcription was performed as recommended by the manufacturer except in one group recombinant PDCL3 was added into reaction mixture.\nTo test whether PDCL3 also could increase expression of cell surface receptors in a cell-free protein synthesis system, we tested the effect of PDCL3 in rabbit reticulocyte system."}, "VEGFR-2": {"tested_on": "VEGFR-2", "assay": "In vitro transcription/translation of VEGFR-2", "type": "biochemical", "protocol": "FIG. 1A. HEK-293 cells expressing VEGFR-2 were transfected with different concentrations of C-terminus Myc-tagged PDCL3. After 48 hours cells were lysed and whole cell lysates (WCL) were blotted for VEGFR-2, PDCL3 and Hsp70 for loading control. Quantification of premature (newly synthesized and partially glycosylated VEGFR-2 corresponding to lower molecular weight) and mature (fully glycosylated) forms of VEGFR-2 is shown. Mean results of three independent experiments are shown. *P=0.04 and […]. FIG. 1B. Human umbilical vein endothelial cells (HUVECs) were transfected with control siRNA or PDCL3-siRNA. After 48 hours cells serum-starved for overnight followed by stimulation with VEGF for 10 minutes. Cells were lysed and whole cell lysates were blotted for phospho-Y1054-VEGFR-2, total VEGFR-2, PDCL3 and Hsp70 for loading control. FIG. 1C. Thermo-induced aggregation of VEGFR-2 was measured using PSA dye as described in the materials and method section. FIG. 1D. In vitro transcription/translation of VEGFR-2 in the absence or presence of exogenous recombinant PDCL3 was performed as described in the materials and method section and schematic of the procedure is shown. FIG. 1E. In vitro translated VEGFR-2 protein in the absence or presence of exogenous recombinant PDCL3 was blotted for VEGFR-2. FIG. 1F. […]"}}, "data": [{"molecule": "recombinant PDCL3 protein: exogenous recombinant PDCL3 protein added to in vitro translation; purified GST-PDCL3 in aggregation assay (protein, left off: small tags and cut ends, exogenous recombinant PDCL3 protein added to in vitro translation; purified GST-PDCL3 in aggregation assay) MQDPNADTEWNDILRKKGILPPKESLKELEEEAEEEQRILQQSVVKTYEDMTLEELEDHEDEFNEEDERAIEMYRRRRLAEWKATKLKNKFGEVLEISGKDYVQEVTKAGEGLWVILHLYKQGIPLCALINQHLSGLARKFPDVKFIKAISTTCIPNYPDRNLPTIFVYLEGDIKAQFIGPLVFGGMNLTRDELEWKLSESGAIMTDLEENPKKPIEDVLLSSVRRSVLMKRDSDSEGD", "values": [{"measurement": "expression of VEGFR-1, CSF-1R and PDGFRβ", "setting": "[1]", "result": "significantly increased expression of VEGFR-1, CSF-1R and PDGFRβ"}, {"measurement": "yield of in vitro translated VEGFR-2", "setting": "VEGFR-2", "result": "significantly increases the yield of in vitro translated VEGFR-2"}]}]}
